The target of the test is AtBAM1 ectodomain (residues 20-629) (Arabidopsis thaliana) (UniProt O49545). The test can be described thus: ITC. (In general: In ITC the heat of successive injections is recorded.)
UniProt O49545, sequence (O49545 20-629): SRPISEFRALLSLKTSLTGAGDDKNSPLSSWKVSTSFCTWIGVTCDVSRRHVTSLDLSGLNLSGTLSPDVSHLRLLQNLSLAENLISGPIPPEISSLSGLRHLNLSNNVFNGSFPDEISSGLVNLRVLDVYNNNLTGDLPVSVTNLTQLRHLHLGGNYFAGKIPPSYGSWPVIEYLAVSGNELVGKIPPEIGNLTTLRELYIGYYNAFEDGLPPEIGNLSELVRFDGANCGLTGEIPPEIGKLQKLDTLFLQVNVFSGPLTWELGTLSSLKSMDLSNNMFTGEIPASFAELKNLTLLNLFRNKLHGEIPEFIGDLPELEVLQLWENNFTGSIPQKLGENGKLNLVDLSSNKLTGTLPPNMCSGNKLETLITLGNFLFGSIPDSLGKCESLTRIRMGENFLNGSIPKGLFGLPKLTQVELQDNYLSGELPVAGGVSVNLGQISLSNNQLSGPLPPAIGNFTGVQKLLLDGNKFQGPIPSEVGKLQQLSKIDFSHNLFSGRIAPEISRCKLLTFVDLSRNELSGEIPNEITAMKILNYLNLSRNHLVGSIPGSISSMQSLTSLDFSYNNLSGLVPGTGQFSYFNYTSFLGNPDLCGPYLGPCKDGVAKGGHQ

Substance AtCLV3p (Arabidopsis CLAVATA3 peptide) gave a fold lower affinity than AtCLE13p of 1000 fold.
